Patent US20150344570A1 (published 2015)

T1: FcgRIIaR (human, UniProt P12318 34-217)
T1 construct: extracellular domain; also called FcγRIIa R; FcgRIIa type R; not shown: His tag attached to the C terminus
T1 sequence (looked up): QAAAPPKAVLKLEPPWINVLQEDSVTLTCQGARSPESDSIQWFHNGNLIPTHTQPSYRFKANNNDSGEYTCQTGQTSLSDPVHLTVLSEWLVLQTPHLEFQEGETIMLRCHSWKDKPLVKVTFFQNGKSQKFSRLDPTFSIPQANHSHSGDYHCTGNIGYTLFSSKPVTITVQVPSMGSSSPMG

T2: FcgRIIb (human, UniProt P31994 43-217)
T2 construct: extracellular domain; also called FcγRIIb; 2b; not shown: His tag attached to the C terminus
T2 sequence (looked up): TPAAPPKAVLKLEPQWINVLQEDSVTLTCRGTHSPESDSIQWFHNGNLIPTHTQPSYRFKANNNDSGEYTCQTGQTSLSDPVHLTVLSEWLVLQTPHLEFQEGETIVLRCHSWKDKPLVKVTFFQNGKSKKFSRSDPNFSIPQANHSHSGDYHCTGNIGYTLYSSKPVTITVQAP

T3: FcgRIIaH (human, UniProt P12318 34-217)
T3 construct: extracellular domain; also called FcγRIIa H; FcgRIIa type H; not shown: His tag attached to the C terminus
T3 sequence (looked up): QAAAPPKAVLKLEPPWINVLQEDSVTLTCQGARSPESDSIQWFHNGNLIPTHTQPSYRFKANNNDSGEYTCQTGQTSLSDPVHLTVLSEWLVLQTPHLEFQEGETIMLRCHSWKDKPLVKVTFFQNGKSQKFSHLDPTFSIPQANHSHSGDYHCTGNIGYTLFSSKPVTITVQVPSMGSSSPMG


Columns and labels:
Assay in all cases: SPR (Biacore); KD of H240-Kn033/H240-Hl033/L73-k0 divided by KD of this variant
FcgRIIIaF = target: T4, FcgRIIIaF (human, UniProt P08637 17-208)
T4 construct: extracellular domain; also called FcγRIIIa F; 3aF; not shown: His tag attached to the C terminus

FcgRIIaR = target: T1, FcgRIIaR
FcgRIIIaV = target: T5, FcgRIIIaV (human, UniProt P08637 17-208)
T5 construct: extracellular domain; also called FcγRIIIa V; 3aV; not shown: His tag attached to the C terminus

FcgRIIb = target: T2, FcgRIIb
FcgRIIaH = target: T3, FcgRIIaH

T4 sequence (P08637 17-208): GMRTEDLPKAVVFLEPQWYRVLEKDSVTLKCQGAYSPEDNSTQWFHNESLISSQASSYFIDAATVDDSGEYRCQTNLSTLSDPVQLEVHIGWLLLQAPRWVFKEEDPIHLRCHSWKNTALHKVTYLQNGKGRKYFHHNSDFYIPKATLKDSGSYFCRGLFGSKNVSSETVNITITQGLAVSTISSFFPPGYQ
T5 sequence (P08637 17-208 F176V limits assumed): as the sequence (P08637 17-208) above, with F160V counted along it

| Binder | fold 3aF (FcgRIIIaF) [fold] | fold 2aR (FcgRIIaR) [fold] | fold 3aV (FcgRIIIaV) [fold] | fold 2b (FcgRIIb) [fold] | fold 2aH (FcgRIIaH) [fold] |
| --- | --- | --- | --- | --- | --- |
| H240-Kn218/H240-Hl068/L73-k0 (antibody, human IgG1, kappa, Anti-epiregulin heterodimerized IgG1, knobs-into-holes) heavy 1: QDQLVQSGAEVKKPGASVKVSCKASGFNIKDTYIQWVRQAPGQGLEWMGRIDPLRKQTKYREKFEGRVTITADTSTNTAYMELSSLRSEDTAVYYCVRSGREFDYWGQGTLVTVSSASTKGPSVFPLAPSSKSTSGGTAALGCLVKDYFPEPVTVSWNSGALTSGVHTFPAVLQSSGLYSLSSVVTVPSSSLGTQTYICNVNHKPSNTKVDKKVEPKSCDKTHTCPPCPAPEQYWGPMVFLFPPKPKDTLMISRTPEVTCVVVDVSDEDPEVKFNWYVDGVEVHNAKTKPREEQYNATYRVVSVLTVLHQDWLNGKEYKCKVSNKDLPAPIEKTISKAKGQPREPQVCTLPPSRDELTKNQVSLWCLVKGFYPSDIAVEWESNGQPENNYKTTPPVLDSDGSFFLYSKLTVDKSRWQQGNVFSCSVMHEALHNHYTQKSLSLSP heavy 2: QDQLVQSGAEVKKPGASVKVSCKASGFNIKDTYIQWVRQAPGQGLEWMGRIDPLRKQTKYREKFEGRVTITADTSTNTAYMELSSLRSEDTAVYYCVRSGREFDYWGQGTLVTVSSASTKGPSVFPLAPSSKSTSGGTAALGCLVKDYFPEPVTVSWNSGALTSGVHTFPAVLQSSGLYSLSSVVTVPSSSLGTQTYICNVNHKPSNTKVDKKVEPKSCDKTHTCPPCPAPELLGGPSVFLFPPKPKDTLMISRTPEVTCVVVDVSHEEPEVKFNWYVDGVEVHNAKTKPREEQYNSTYRVVSVLTVLHQDWLNGKEYKCKVSNDALPKPIEETISKAKGQPREPQVYTLPPSRCELTKNQVSLSCAVKGFYPSDIAVEWESNGQPENNYKTTPPVLDSDGSFFLVSKLTVDKSRWQQGNVFSCSVMHEALHNHYTQKSLSLSP light: DIQMTQSPSSLSASVGDRVTITCRASQDIHKYIAWYQQKPGQAPRLLIQYTSTLQPGVPSRFSGSGSGTDYTFTISSLQPEDIATYYCLQYEQLRTFGGGTKVEIKRTVAAPSVFIFPPSDEQLKSGTASVVCLLNNFYPREAKVQWKVDNALQSGNSQESVTEQDSKDSTYSLSSTLTLSKADYEKHKVYACEVTHQGLSSPVTKSFNRGEC | 82.9 | 20 | 96 | 15 | 15.8 |
| H240-Kn221/H240-Hl068/L73-k0 (antibody, human IgG1, kappa, Anti-epiregulin heterodimerized IgG1, knobs-into-holes) heavy 1: QDQLVQSGAEVKKPGASVKVSCKASGFNIKDTYIQWVRQAPGQGLEWMGRIDPLRKQTKYREKFEGRVTITADTSTNTAYMELSSLRSEDTAVYYCVRSGREFDYWGQGTLVTVSSASTKGPSVFPLAPSSKSTSGGTAALGCLVKDYFPEPVTVSWNSGALTSGVHTFPAVLQSSGLYSLSSVVTVPSSSLGTQTYICNVNHKPSNTKVDKKVEPKSCDKTHTCPPCPAPETYWGPMVFLFPPKPKDTLMISRTPEVTCVVVDVSDEDPEVKFNWYVDGVEVHNAKTKPREEQYNATYRVVSVLTVLHQDWLNGKEYKCKVSNKDLPAPIEKTISKAKGQPREPQVCTLPPSRDELTKNQVSLWCLVKGFYPSDIAVEWESNGQPENNYKTTPPVLDSDGSFFLYSKLTVDKSRWQQGNVFSCSVMHEALHNHYTQKSLSLSP heavy 2: QDQLVQSGAEVKKPGASVKVSCKASGFNIKDTYIQWVRQAPGQGLEWMGRIDPLRKQTKYREKFEGRVTITADTSTNTAYMELSSLRSEDTAVYYCVRSGREFDYWGQGTLVTVSSASTKGPSVFPLAPSSKSTSGGTAALGCLVKDYFPEPVTVSWNSGALTSGVHTFPAVLQSSGLYSLSSVVTVPSSSLGTQTYICNVNHKPSNTKVDKKVEPKSCDKTHTCPPCPAPELLGGPSVFLFPPKPKDTLMISRTPEVTCVVVDVSHEEPEVKFNWYVDGVEVHNAKTKPREEQYNSTYRVVSVLTVLHQDWLNGKEYKCKVSNDALPKPIEETISKAKGQPREPQVYTLPPSRCELTKNQVSLSCAVKGFYPSDIAVEWESNGQPENNYKTTPPVLDSDGSFFLVSKLTVDKSRWQQGNVFSCSVMHEALHNHYTQKSLSLSP light: DIQMTQSPSSLSASVGDRVTITCRASQDIHKYIAWYQQKPGQAPRLLIQYTSTLQPGVPSRFSGSGSGTDYTFTISSLQPEDIATYYCLQYEQLRTFGGGTKVEIKRTVAAPSVFIFPPSDEQLKSGTASVVCLLNNFYPREAKVQWKVDNALQSGNSQESVTEQDSKDSTYSLSSTLTLSKADYEKHKVYACEVTHQGLSSPVTKSFNRGEC | 107 | 25.5 | 102 | 15 | 11.8 |
| H240-Kn219/H240-Hl068/L73-k0 (antibody, human IgG1, kappa, Anti-epiregulin heterodimerized IgG1, knobs-into-holes) heavy 1: QDQLVQSGAEVKKPGASVKVSCKASGFNIKDTYIQWVRQAPGQGLEWMGRIDPLRKQTKYREKFEGRVTITADTSTNTAYMELSSLRSEDTAVYYCVRSGREFDYWGQGTLVTVSSASTKGPSVFPLAPSSKSTSGGTAALGCLVKDYFPEPVTVSWNSGALTSGVHTFPAVLQSSGLYSLSSVVTVPSSSLGTQTYICNVNHKPSNTKVDKKVEPKSCDKTHTCPPCPAPEIYWGPMVFLFPPKPKDTLMISRTPEVTCVVVDVSDEDPEVKFNWYVDGVEVHNAKTKPREEQYNATYRVVSVLTVLHQDWLNGKEYKCKVSNKDLPAPIEKTISKAKGQPREPQVCTLPPSRDELTKNQVSLWCLVKGFYPSDIAVEWESNGQPENNYKTTPPVLDSDGSFFLYSKLTVDKSRWQQGNVFSCSVMHEALHNHYTQKSLSLSP heavy 2: QDQLVQSGAEVKKPGASVKVSCKASGFNIKDTYIQWVRQAPGQGLEWMGRIDPLRKQTKYREKFEGRVTITADTSTNTAYMELSSLRSEDTAVYYCVRSGREFDYWGQGTLVTVSSASTKGPSVFPLAPSSKSTSGGTAALGCLVKDYFPEPVTVSWNSGALTSGVHTFPAVLQSSGLYSLSSVVTVPSSSLGTQTYICNVNHKPSNTKVDKKVEPKSCDKTHTCPPCPAPELLGGPSVFLFPPKPKDTLMISRTPEVTCVVVDVSHEEPEVKFNWYVDGVEVHNAKTKPREEQYNSTYRVVSVLTVLHQDWLNGKEYKCKVSNDALPKPIEETISKAKGQPREPQVYTLPPSRCELTKNQVSLSCAVKGFYPSDIAVEWESNGQPENNYKTTPPVLDSDGSFFLVSKLTVDKSRWQQGNVFSCSVMHEALHNHYTQKSLSLSP light: DIQMTQSPSSLSASVGDRVTITCRASQDIHKYIAWYQQKPGQAPRLLIQYTSTLQPGVPSRFSGSGSGTDYTFTISSLQPEDIATYYCLQYEQLRTFGGGTKVEIKRTVAAPSVFIFPPSDEQLKSGTASVVCLLNNFYPREAKVQWKVDNALQSGNSQESVTEQDSKDSTYSLSSTLTLSKADYEKHKVYACEVTHQGLSSPVTKSFNRGEC | 107 | 52.9 | 98 | 36.7 | 26 |
| H240-Kn220/H240-Hl068/L73-k0 (antibody, human IgG1, kappa, Anti-epiregulin heterodimerized IgG1, knobs-into-holes) heavy 1: QDQLVQSGAEVKKPGASVKVSCKASGFNIKDTYIQWVRQAPGQGLEWMGRIDPLRKQTKYREKFEGRVTITADTSTNTAYMELSSLRSEDTAVYYCVRSGREFDYWGQGTLVTVSSASTKGPSVFPLAPSSKSTSGGTAALGCLVKDYFPEPVTVSWNSGALTSGVHTFPAVLQSSGLYSLSSVVTVPSSSLGTQTYICNVNHKPSNTKVDKKVEPKSCDKTHTCPPCPAPEMYWGPMVFLFPPKPKDTLMISRTPEVTCVVVDVSDEDPEVKFNWYVDGVEVHNAKTKPREEQYNATYRVVSVLTVLHQDWLNGKEYKCKVSNKDLPAPIEKTISKAKGQPREPQVCTLPPSRDELTKNQVSLWCLVKGFYPSDIAVEWESNGQPENNYKTTPPVLDSDGSFFLYSKLTVDKSRWQQGNVFSCSVMHEALHNHYTQKSLSLSP heavy 2: QDQLVQSGAEVKKPGASVKVSCKASGFNIKDTYIQWVRQAPGQGLEWMGRIDPLRKQTKYREKFEGRVTITADTSTNTAYMELSSLRSEDTAVYYCVRSGREFDYWGQGTLVTVSSASTKGPSVFPLAPSSKSTSGGTAALGCLVKDYFPEPVTVSWNSGALTSGVHTFPAVLQSSGLYSLSSVVTVPSSSLGTQTYICNVNHKPSNTKVDKKVEPKSCDKTHTCPPCPAPELLGGPSVFLFPPKPKDTLMISRTPEVTCVVVDVSHEEPEVKFNWYVDGVEVHNAKTKPREEQYNSTYRVVSVLTVLHQDWLNGKEYKCKVSNDALPKPIEETISKAKGQPREPQVYTLPPSRCELTKNQVSLSCAVKGFYPSDIAVEWESNGQPENNYKTTPPVLDSDGSFFLVSKLTVDKSRWQQGNVFSCSVMHEALHNHYTQKSLSLSP light: DIQMTQSPSSLSASVGDRVTITCRASQDIHKYIAWYQQKPGQAPRLLIQYTSTLQPGVPSRFSGSGSGTDYTFTISSLQPEDIATYYCLQYEQLRTFGGGTKVEIKRTVAAPSVFIFPPSDEQLKSGTASVVCLLNNFYPREAKVQWKVDNALQSGNSQESVTEQDSKDSTYSLSSTLTLSKADYEKHKVYACEVTHQGLSSPVTKSFNRGEC | 82.9 | 29.6 | 96 | 20.6 | 15.3 |
